Measurements: the RNAGym collection of RNA variant scans (doi:10.1073/pnas.2313332121)
This sample holds only a part of the variants without activity.

B1: TPR 5TU (parent)
chain: GGAUCUUCUCGAUCUAACAAAAAAGACAAAUCUGCCACAAAGCUUGAGAGCAUCUUCGGAUGCAGAGGCGGCAGCCUUCGGUGGCGCGAUAGCGCCAACGUUCUCAACUAUGACACGCAAAACGCGUGCUCCGUUGAAUGGAGUUUAUCAUG

Variants of: B1
Assay: polymerase ribozyme fitness, log enrichment relative to wild type (log ratio); higher = more active; in vitro selection for triplet polymerase activity
Summary of the method: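 The heterodimeric triplet polymerase ribozyme's subunits were each mutagenized into PCR-built libraries and transcribed. Every library was selected once, in triplicate, by annealing with a biotinylated primer, the partner subunit and triplets, incubating frozen at −7 °C, gel-excising extended constructs, capturing on streptavidin beads and running RT-PCR. Input and output libraries were Illumina-sequenced, with genotypes kept only at ≥10 input reads and ≥1 read per output. Fitness, from inverse-variance-weighted replicate averages, is the base-2 logarithm of genotype enrichment over wild-type enrichment.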

| Variant | polymerase ribozyme fitness (log ratio) |
| --- | --- |
| C76A C99A | -4.05 |
| C76G G92U A121G G143U | ≤ -4.2 |
| A73U C85U G117U | -0.841 |
| C72G C85G | ≤ -4.2 |
| A73G U77C G88C | ≤ -4.2 |
| G74A U82G G94U G136A | ≤ -4.2 |
| G74A G141U | -2.35 |
| C75G U82G A91C | ≤ -4.2 |
| C72U G92A C116U U139G | -3.15 |
| A73U G84A G92A A122C U134A | ≤ -4.2 |
| A73G C85U G88A A119U U134A G140C | ≤ -4.2 |
| C75U C93U G143U | -3.61 |
| C76G G83U C103U | ≤ -4.2 |
| C76A C96G | -1.51 |
| G74A U77G | ≤ -4.2 |
| C75U G128U | -3.28 |
| C75U G128A | -3.95 |
| C76A C79U C96A U139A | ≤ -4.2 |
| A73U C75G G88C | ≤ -4.2 |
| C76G G86A | ≤ -4.2 |
| C76A U78C C103G | ≤ -4.2 |

| Variant | polymerase ribozyme fitness (log ratio) |
| --- | --- |
| C75G C118U | -3.87 |
| C76A A122U | 0.592 |
| C76A A122G | -0.466 |
| C75U G80C A107U | ≤ -4.2 |
| A73U G83A | -1.97 |
| C75U A91G | -3.07 |
| C75G C76G G81U C95G | ≤ -4.2 |
| C76A G86U | -1.75 |
| C75G C129U | ≤ -4.2 |
| G74U C85G C99A A107U C125A | ≤ -4.2 |
| C75G C85U | -3.58 |
| C72U G124U A142G | -2 |
| C72A G140U | ≤ -4.2 |
| C75G G94A | -4.08 |
| C75G G94C | -3.53 |
| A73U G94A G152C | ≤ -4.2 |
| C76A G83A | -2.85 |
| G74A U148A | ≤ -4.2 |
| A73G A106C U111A U144A | ≤ -4.2 |
| A73U G133U A147C | ≤ -4.2 |
| C76U A91U | -4.13 |

| Variant | polymerase ribozyme fitness (log ratio) |
| --- | --- |
| A73G A89U | -0.161 |
| C76A U82A C85G A106G A107U C108G C129A | ≤ -4.2 |
| C72U C95U C96U U146A | -2.06 |
| A73G C125G | -0.161 |
| C76G A91C | ≤ -4.2 |
| A73U G100U U104A G126C | ≤ -4.2 |
| G74U | -3.33 |
| G74C | -3.96 |
| G74A | -2.81 |
| C75G A97U | ≤ -4.2 |
| C72U G92U U135A G143A | -3.54 |
| C75U G88A A119U | ≤ -4.2 |
| C72U A122G | -0.726 |
| A73U U102G | ≤ -4.2 |
| G74A G80A C85A G92A C125A G136C A138G | ≤ -4.2 |
| A73G C79U C96U A142U | ≤ -4.2 |
| C76A U102G | ≤ -4.2 |
| C76A C131G | -3.98 |
| C76G U127C A150U | ≤ -4.2 |
| C75G C96U A120C | ≤ -4.2 |
| C75A U135C | ≤ -4.2 |

| Variant | polymerase ribozyme fitness (log ratio) |
| --- | --- |
| C72U G126U | -0.101 |
| A73U C96A U109A C116U | -3.64 |
| C76A U77G C95U G100U | -4.15 |
| A73G C76A G88C C105G C108G C114U G136U | -3.91 |
| C75A C95G C96U | ≤ -4.2 |
| C75G C85U U101C | ≤ -4.2 |
| A73U A150G | -2.68 |
| C75G G86C C87U | ≤ -4.2 |
| A73G C95U | -0.166 |
| A73C A142U | ≤ -4.2 |
| C72U C87A A98U A138C | ≤ -4.2 |
| C76G G80C C105U | ≤ -4.2 |
| A73G G83A | -1.72 |
| C72G G83U G124U G128U G133A U148A | ≤ -4.2 |
| A73G C87G U101G U139C | ≤ -4.2 |
| G74A A89C | ≤ -4.2 |
| C75U C85U U111G A121U G152A | ≤ -4.2 |
| G74A U77G G83A | ≤ -4.2 |
| C75U A121G | -0.596 |
| C76A C118A | -0.944 |
